Source: patent publication US20250361308A1 (NEUROGENE, published 2025)
Read-outs that look alike come from different tables or passages of the source.

T1: Human IL-2 R beta/CD122 Protein, Fc Tag (ILB-H5253) (human, UniProt P14784 27-239)
T1 construct: Bought protein, captured on anti-human Fc sensors; also called huIL2Rβ; IL-2Rβ; not shown: Fc tag of the bought reagent
T1 sequence (looked up): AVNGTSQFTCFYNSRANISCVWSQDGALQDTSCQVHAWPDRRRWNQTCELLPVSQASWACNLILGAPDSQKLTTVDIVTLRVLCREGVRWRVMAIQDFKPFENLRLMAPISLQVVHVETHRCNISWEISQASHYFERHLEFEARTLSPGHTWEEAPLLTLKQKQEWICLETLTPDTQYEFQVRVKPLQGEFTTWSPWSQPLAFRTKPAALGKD

T2: huIL2Rβγ: Human IL-2 R gamma/CD132 Protein, Fc Tag (ILG-H5256) with Human IL-2 R beta/CD122 Protein, His Tag … (human, UniProt P31785 23-254; P14784 27-239)
T2 construct: IL-2Rγ-Fc sat on the sensor; IL-2Rβ-His was in solution at a concentration equimolar to or greater than the analyte; also called IL-2RBG; not shown: Fc tag of the bought reagent; His tag of the bought reagent
T2 sequence (looked up) 1: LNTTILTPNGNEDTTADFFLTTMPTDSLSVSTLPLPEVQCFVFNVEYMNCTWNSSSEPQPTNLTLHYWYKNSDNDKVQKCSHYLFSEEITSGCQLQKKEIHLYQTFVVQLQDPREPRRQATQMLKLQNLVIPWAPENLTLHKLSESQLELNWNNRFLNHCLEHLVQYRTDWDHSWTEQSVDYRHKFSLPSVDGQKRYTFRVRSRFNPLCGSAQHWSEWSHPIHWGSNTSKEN
T2 sequence (looked up) 2: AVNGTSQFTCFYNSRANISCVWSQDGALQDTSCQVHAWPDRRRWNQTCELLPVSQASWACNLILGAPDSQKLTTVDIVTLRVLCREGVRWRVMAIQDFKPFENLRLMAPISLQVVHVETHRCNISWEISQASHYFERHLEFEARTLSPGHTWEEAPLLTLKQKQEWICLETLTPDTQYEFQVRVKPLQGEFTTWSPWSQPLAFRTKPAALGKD

T3: human CD122 and CD132 expressed on a HEK293 cell line (human, UniProt P14784 27-551; P31785 23-369)
T3 construct: whole, on cells; also called IL-2RBG; IL-2Rβγ on cells
T3 sequence (looked up) 1: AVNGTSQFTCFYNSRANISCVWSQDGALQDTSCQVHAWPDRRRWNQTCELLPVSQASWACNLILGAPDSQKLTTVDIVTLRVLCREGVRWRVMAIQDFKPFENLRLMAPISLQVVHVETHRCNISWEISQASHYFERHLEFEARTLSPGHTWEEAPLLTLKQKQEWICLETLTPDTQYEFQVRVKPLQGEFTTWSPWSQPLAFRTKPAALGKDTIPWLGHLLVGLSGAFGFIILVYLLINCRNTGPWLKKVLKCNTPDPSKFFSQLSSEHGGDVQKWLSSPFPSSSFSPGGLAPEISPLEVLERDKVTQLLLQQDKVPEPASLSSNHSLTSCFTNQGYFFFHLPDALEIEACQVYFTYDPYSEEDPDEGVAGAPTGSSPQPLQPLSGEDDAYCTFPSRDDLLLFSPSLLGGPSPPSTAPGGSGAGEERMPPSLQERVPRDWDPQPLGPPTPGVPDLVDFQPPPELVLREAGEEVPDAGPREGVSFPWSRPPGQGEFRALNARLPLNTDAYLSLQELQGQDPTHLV
T3 sequence (looked up) 2: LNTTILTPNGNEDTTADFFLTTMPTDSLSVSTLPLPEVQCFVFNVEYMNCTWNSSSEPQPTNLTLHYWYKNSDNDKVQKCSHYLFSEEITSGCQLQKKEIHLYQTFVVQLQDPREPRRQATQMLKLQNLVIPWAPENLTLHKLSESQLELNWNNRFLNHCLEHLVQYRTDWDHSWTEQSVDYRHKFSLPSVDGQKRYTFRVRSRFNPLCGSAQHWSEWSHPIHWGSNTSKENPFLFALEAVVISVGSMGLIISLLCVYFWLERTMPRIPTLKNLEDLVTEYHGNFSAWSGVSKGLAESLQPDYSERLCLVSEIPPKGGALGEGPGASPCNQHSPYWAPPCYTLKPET


What was measured:
[1] = biological target: T1, Human IL-2 R beta/CD122 Protein, Fc Tag …; experiment: Octet BLI; IL-2Rβ-Fc on anti-human Fc sensors, Neo-2/15 variant as analyte, 1:1 steady-state model
Protocol: (§1) Binding data was collected in the Octet RED96 instrument and processed using the integrated Octet software. […] Anti-Human Fc Capture (AHC) sensors were equilibrated for 90s in 1× Cytiva HBS-EP+ Buffer 10 binding buffer. Sensors were loaded with receptor by mixing with wells containing 0.5 ug/ml aforementioned receptors until a threshold response reached 1.0 nm. Sensors were then baselined in binding buffer for 90s. After baseline measurement, the association kinetics (kon) were monitored by dipping the biosensors in wells containing analyte for 400s. […] Dissociation kinetics (koff) were monitored by dipping the biosensors in separate wells of binding buffer for 800s. The dissociation constant (Kd) was calculated using a 1:1 steady-state binding model with the Octet software.

[2] = biological target: T2, huIL2Rβγ: Human IL-2 R gamma/CD132 …; experiment: Octet BLI; IL-2Rγ-Fc on anti-human Fc sensors with IL-2Rβ-His in solution, 1:1 steady-state model
Protocol: as §1

[3] = biological target: T2, huIL2Rβγ: Human IL-2 R gamma/CD132 …; experiment: as above; remark: listed apart in the source
Protocol: as §1

[4] = biological target: T1, Human IL-2 R beta/CD122 Protein, Fc Tag …; experiment: Octet BLI; IL-2Rβ-Fc on anti-human Fc sensors, Neo-2/15 variant as analyte, 1:1 steady-state model; remark: listed apart in the source
Protocol: as §1

[5] = biological target: T3, human CD122 and CD132 expressed on a …; experiment: flow cytometry saturation binding on HEK293 cells expressing human CD122 and CD132; apparent KD
Protocol: Saturation binding studies were done using a HEK293 cell line expressing human CD122 and CD132. […] Cells were incubated for 30 minutes on ice, then pelleted and washed twice with cold PBS. […] After a 30-minute incubation on ice, the cells were pelleted and washed twice in cold PBS. […] The apparent dissociation constant (KD) was calculated using GraphPad Prism (GraphPad, San Diego, CA).

Kd [1]	Kd [2]	Kd [3]	Kd [4]	Kd [5]	Binder
140 nM	230 nM	–	–	–	Neo-2/15_D15A (designed binder) PKKKIQLHAEHALYAALMILNIVKTNSPPAEEKLEDYAFNFELILEEIARLFESGDQKDEAEKAKRMKEWMKRIKTTASEDEQEEMANAIITILQSWIFS
60 nM	44 nM	–	–	–	Neo-2/15_N40A (designed binder) PKKKIQLHAEHALYDALMILNIVKTNSPPAEEKLEDYAFAFELILEEIARLFESGDQKDEAEKAKRMKEWMKRIKTTASEDEQEEMANAIITILQSWIFS
–	–	15 nM	3.3 nM	–	Neo-2/15_H11A (designed binder) PKKKIQLHAEAALYDALMILNIVKTNSPPAEEKLEDYAFNFELILEEIARLFESGDQKDEAEKAKRMKEWMKRIKTTASEDEQEEMANAIITILQSWIFS
–	–	11 nM	1.4 nM	–	Neo-2/15_H8A (designed binder) PKKKIQLAAEHALYDALMILNIVKTNSPPAEEKLEDYAFNFELILEEIARLFESGDQKDEAEKAKRMKEWMKRIKTTASEDEQEEMANAIITILQSWIFS
–	–	10 to 20 nM	0.7 nM	–	Neo-2/15_Y14A (designed binder) PKKKIQLHAEHALADALMILNIVKTNSPPAEEKLEDYAFNFELILEEIARLFESGDQKDEAEKAKRMKEWMKRIKTTASEDEQEEMANAIITILQSWIFS
3 nM	190 nM	–	–	–	Neo-2/15_Q95A (designed binder) PKKKIQLHAEHALYDALMILNIVKTNSPPAEEKLEDYAFNFELILEEIARLFESGDQKDEAEKAKRMKEWMKRIKTTASEDEQEEMANAIITILASWIFS
84 nM	58 nM	–	–	–	Neo-2/15_I44A (designed binder) PKKKIQLHAEHALYDALMILNIVKTNSPPAEEKLEDYAFNFELALEEIARLFESGDQKDEAEKAKRMKEWMKRIKTTASEDEQEEMANAIITILQSWIFS
–	–	–	–	131 nM	C terminal anti-CD25 full-length Ab fusion with Neo-2/15_D15S_Q95E (TRA comprising SEQ ID NO: 69 and 70) (other, also called distal fused TRA) heavy: QVQLVQSGAEVKKPGSSVKVSCKASGYTFTSYRMHWVRQAPGQGLEWIGYINPSTGYTEYNQKFKDKATITADESTNTAYMELSSLRSEDTAVYYCARGGGVFDYWGQGTLVTVSSASTKGPSVFPLAPSSKSTSGGTAALGCLVKDYFPEPVTVSWNSGALTSGVHTFPAVLQSSGLYSLSSVVTVPSSSLGTQTYICNVNHKPSNTKVDKKVEPKSCDKTHTCPPCPAPEAAGAPSVFLFPPKPKDTLMISRTPEVTCVVVDVSHEDPEVKFNWYVDGVEVHNAKTKPREEQYNSTYRVVSVLTVLHQDWLNGKEYKCKVSNKALPAPIEKTISKAKGQPREPQVYTLPPSREEMTKNQVSLTCLVKGFYPSDIAVEWESNGQPENNYKTTPPVLDSDGSFFLYSKLTVDKSRWQQGNVFSCSVMHEALHNHYTQKSLSLSPGKGGGGSGGGGSGGGGSPKKKIQLHAEHALYSALMILNIVKTNSPPAEEKLEDYAFNFELILEEIARLFESGDQKDEAEKAKRMKEWMKRIKTTASEDEQEEMANAIITILESWIFS light: DIQMTQSPSTLSASVGDRVTITCSASSSISYMHWYQQKPGKAPKLLIYTTSNLASGVPARFSGSGSGTEFTLTISSLQPDDFATYYCHQRSTYPLTFGQGTKVEVKRTVAAPSVFIFPPSDEQLKSGTASVVCLLNNFYPREAKVQWKVDNALQSGNSQESVTEQDSKDSTYSLSSTLTLSKADYEKHKVYACEVTHQGLSSPVTKSFNRGEC
–	–	–	–	82 nM	N terminal anti-CD25 full-length Ab fusion with Neo-2/15_D15S_Q95E (other) heavy: GSPKKKIQLHAEHALYSALMILNIVKTNSPPAEEKLEDYAFNFELILEEIARLFESGDQKDEAEKAKRMKEWMKRIKTTASEDEQEEMANAIITILESWIFSGGGGSGGGGSGGGGSQVQLVQSGAEVKKPGSSVKVSCKASGYTFTSYRMHWVRQAPGQGLEWIGYINPSTGYTEYNQKFKDKATITADESTNTAYMELSSLRSEDTAVYYCARGGGVFDYWGQGTLVTVSSASTKGPSVFPLAPSSKSTSGGTAALGCLVKDYFPEPVTVSWNSGALTSGVHTFPAVLQSSGLYSLSSVVTVPSSSLGTQTYICNVNHKPSNTKVDKKVEPKSCDKTHTCPPCPAPEAAGAPSVFLFPPKPKDTLMISRTPEVTCVVVDVSHEDPEVKFNWYVDGVEVHNAKTKPREEQYNSTYRVVSVLTVLHQDWLNGKEYKCKVSNKALPAPIEKTISKAKGQPREPQVYTLPPSREEMTKNQVSLTCLVKGFYPSDIAVEWESNGQPENNYKTTPPVLDSDGSFFLYSKLTVDKSRWQQGNVFSCSVMHEALHNHYTQKSLSLSPGK light: DIQMTQSPSTLSASVGDRVTITCSASSSISYMHWYQQKPGKAPKLLIYTTSNLASGVPARFSGSGSGTEFTLTISSLQPDDFATYYCHQRSTYPLTFGQGTKVEVKRTVAAPSVFIFPPSDEQLKSGTASVVCLLNNFYPREAKVQWKVDNALQSGNSQESVTEQDSKDSTYSLSSTLTLSKADYEKHKVYACEVTHQGLSSPVTKSFNRGEC
–	–	–	–	131 nM	N terminal anti-CD25 full-length Ab fusion with Neo-2/15_N40S_I44S_Q95E (TRA comprising SEQ ID NO: 74 and 70) (other, also called proximal fused TRA) heavy: GSPKKKIQLHAEHALYDALMILNIVKTNSPPAEEKLEDYAFSFELSLEEIARLFESGDQKDEAEKAKRMKEWMKRIKTTASEDEQEEMANAIITILESWIFSGGGGSGGGGSGGGGSQVQLVQSGAEVKKPGSSVKVSCKASGYTFTSYRMHWVRQAPGQGLEWIGYINPSTGYTEYNQKFKDKATITADESTNTAYMELSSLRSEDTAVYYCARGGGVFDYWGQGTLVTVSSASTKGPSVFPLAPSSKSTSGGTAALGCLVKDYFPEPVTVSWNSGALTSGVHTFPAVLQSSGLYSLSSVVTVPSSSLGTQTYICNVNHKPSNTKVDKKVEPKSCDKTHTCPPCPAPEAAGAPSVFLFPPKPKDTLMISRTPEVTCVVVDVSHEDPEVKFNWYVDGVEVHNAKTKPREEQYNSTYRVVSVLTVLHQDWLNGKEYKCKVSNKALPAPIEKTISKAKGQPREPQVYTLPPSREEMTKNQVSLTCLVKGFYPSDIAVEWESNGQPENNYKTTPPVLDSDGSFFLYSKLTVDKSRWQQGNVFSCSVMHEALHNHYTQKSLSLSPGK light: DIQMTQSPSTLSASVGDRVTITCSASSSISYMHWYQQKPGKAPKLLIYTTSNLASGVPARFSGSGSGTEFTLTISSLQPDDFATYYCHQRSTYPLTFGQGTKVEVKRTVAAPSVFIFPPSDEQLKSGTASVVCLLNNFYPREAKVQWKVDNALQSGNSQESVTEQDSKDSTYSLSSTLTLSKADYEKHKVYACEVTHQGLSSPVTKSFNRGEC
